Test: soluble on expression in E. coli; label from the status in PepcDB or PDB records

| Sequence | soluble on expression in E. coli |
| --- | --- |
| MEMAYDFAETKDTAIIFIYRPPVGDIQISPVLEGPRRLRLWNDITISLYKDVYPDIRLIESRSRVEVHLRKVEMVRWGGINGRPADKPQDDGKETMVEDSGDEENPSVMDLFSKIYQRSGDDVRRAMEKSFYESEGTVLSTDWDQVKSKKITRED | not soluble |
| MGSDKIHHHHHHMQVLVVDYTAKDAAEKFVQSLHETGFAVLVNHPIKQSLVESIYKNWQEFFLSEEKHAFAFDPVKQDGYFSSEISETAKGHSKKDIKEYFHVYPWGRIPAQLNDEIFEYYRLASELAAELLDWVEEYSPADIADKYSETLSNMIKETPNTLLRILHYPPLTGNEEAGAVRAASHEDINLLTILPAANEPGLQVQRQNGEWIDVPSDFGNLIINIGDMLQETSAGYFPSTSHRVINPTGKGSDKSRISLPLFLHPRSEVVLSDKHTQASYLLERLRELGVKV | not soluble |
| MKNLTTIKQTNKNVKQERRKKYADLAIQGTNNSSIASKRSVELLYLPKLSSANNFQMDKNNKLLEYFKFFVPKKIKRSPCINRGYWLRLFAIRSRLNSIIEQTPQDKKIVVVNLGCGYDPLPFQLLDTNNIQSQQYHDRVSFIDIDYSDLLKIKIELIKTIPELSKIIGLSEDKDYVDDSNVDFLTTPKYLARPCDLNDSKMFSTLLNECQLYDPNVVKVFVAEVSLAYMKPERSDSIIEATSKMENSHFIILEQLIPKGPFEPFSKQMLAHFKRNDSPLQSVLKYNTIESQVQRFNKLGFAYVNVGDMFQLWESADEATKKELLKVEPFDELEEFHLFCHHYVLCHATNYKEFAFTQGFLFDRSISEINLTVDEDYQLLECECPINRKFGDVDVAGNDVFYMGGSNPYRVNEILQLSIHYDKIDMKNIEVSSSEVPVARMCHTFTTISRNNQLLLIGGRKAPHQGLSDNWIFDMKTREWSMIKSLSHTRFRHSACSLPDGNVLILGGVTEGPAMLLYNVTEEIFKDVTPKDEFFQNSLVSAGLEFDPVSKQGIILGGGFMDQTTVSDKAIIFKYDAENATEPITVIKKLQHPLFQRYGSQIKYITPRKLLIVGGTSPSGLFDRTNSIISLDPLSETLTSIPISRRIWEDHSLMLAGFSLVSTSMGTIHIIGGGATCYGFGSVTNVGLKLIAIAK | soluble |
| MNSYPLISVIMSVYKEEREWLVSSIQSILDQTVSDFEFIIILDFPNSELLKTLKDFEKKDSRIIIYQNEKNVGLVESLNTALSFSRGKYIARMDADDISHKNRFEKQLKYITLNNLDLVGGNVNIFHSNKGIYNTTDKVQSDYFLCKLLKIGTIGIVHPTFFSKRNVYDTIGGYYHAECAEDLELLMRANLNGFKIGNIPDVILDCRYSEKSITKENAYFMFCTVKYLKSLYRSSLKSGDYKFNSNYIELYLYDENNKLAFSEKQNLMSEARHSFNEKKYISFLINLIKSILISRTVFFSIKVNVMSFLFRKVEVKIPKVLLACIKIKLQLEHHHHHH | soluble |
| MGHHHHHHSHAEDATERACGLTMDPECAQLLPALCAVLVDPRQPVADDTCLEKLLDWFKTVTEGESSVVLLQEHPCLVELLSHVLKVQDLSSGVLSFSLRLAGTFAAQENCFQYLQQGELLPGLFGEPGPLGRATWAVPTVRSGWIQGLRSLAQHPSALRFLADHGAVDTIFSLQGDSSLFVASAASQLLVHVLALSMRGGAEGQPCLPGGDWPACAQKIMDHVEESLCSAATPKVTQALNVLTTTFGRCQSPWTEALWVRLSPRVACLLERDPIPAAHSFVDLLLCVARSGPRDAAGGPGWATVFLG | not soluble |
| RMNLFDLGTHHALVDYAHNPAGYEAVGAFVKNWPGERIGVVGGPGDRRDEDLILLGRIAAAVFDRIIVKEDDDKRGRHAGEVADLIRQGIQEENPNCQYETILDEQRALNVALDEAPQEALVVIFPES | not soluble |
| MSRNHFNELSPCEALIMKLIWEAPQDIPVQELIDQLRDDYGKEYARTTVVTFVGKLKDKRFVDTYRKGKSAFIHPLRSEEEYRRQLLKEEADFWFNGKAVDMVASICESQKLEDDEIKRIKKILNGLNK | not soluble |
| MGKVYKKVELVGTSEEGLEAAIQAALARARKTLRHLDFFEVKEIRGTIGEAGVKEYQVVLEVGFRLEET | soluble |
| LFPSFLKPLAAHALELALNRLLTLDPDTSQALRTLDGQCIALSLKTPAVELQIRVDGECLRVGPVDAAYEMDLKVHGTLAGFLGQLPWLEQVRRAGGAQTGRLRVAGDAELAQRLQQLARRFDPDWQQPFIVVFGELLGVQIAGVLRMTLRQLQRSAVDLAQSAAEFITEESSSVVPRAELEAFYEDVDVLRDDVERLATRLMKLCSEMAA | not soluble |
| MSLKVLLLDVDGTLLSFETHKVSQSSIDALKKVHDSGIKIVIATGRAASDLHEIDAVPYDGVIALNGAECVLRDGSVIRKVAIPAQDFRKSMELAREFDFAVALELNEGVFVNRLTPTVEQIAGIVEHPVPPVVDIEEMFERKECCQLCFYFDEEAEQKVMPLLSGLSATRWHPLFADVNVAGTSKATGLSLFADYYRVKVSEIMACGDGGNDIPMLKAAGIGVAMGNASEKVQSVADFVTDTVDNSGLYKALKHFGVIEGHHHHHH | soluble |
| MTAELLVNVTPSETRVAYIDGGILQEIHIEREARRGIVGNIYKGRVSRVLPGMQAAFVDIGLDKAAFLHASDIMPHTECVAGEEQKQFTVRDISELVRQGQDLMVQVVKDPLGTKGARLTTDITLPSRYLVFMPGASHVGVSQRIESESERERLKKVVAEYCDEQGGFIIRTAAEGVGEAELASDAAYLKRVWTKVMERKKRPQTRYQLYGELALAQRVLRDFADAELDRIRVDSRLTYEALLEFTSEYIPEMTSKLEHYTGRQPIFDLFDVENEIQRALERKVELKSGGYLIIDQTEAMTTVDINTGAFVGHRNLDDTIFNTNIEATQAIARQLRLRNLGGIIIIDFIDMNNEDHRRRVLHSLEQALSKDRVKTSVNGFSALGLVEMTRKRTRESIEHVLCNECPTCHGRGTVKTVETVCYEIMREIVRVHHAYDSDRFLVYASPAVAEALKGEESHSLAEVEIFVGKQVKVQIEPLYNQEQFDVVMM | soluble |
| MAMITGGELVVRTLIKAGVEHLFGLHGSHIDTIFQACLDHDVPIIDTRHEAAAGHAAEGYARAGAKLGVALVTAGGGFTNAVTPIANAWLDRTPVLFLTGSGALRDDETNTLQAGIDQVAMAAPITKWAHRVMATEHIPRLVMQAIRAALSAPRGPVLLDLPWDILMNQIDEDSVIIPDLVLSAHGARPDPADLDQALALLRKAERPVIVLGSEASRTARKTALSAFVAATGVPVFADYEGLSMLSGLPDAMRGGLVQNLYSFAKADAAPDLVLMLGARFGLNTGHGSGQLIPHSAQVIQVDPDACELGRLQGIALGIVADVGGTIEALAQATAQDAAWPDRGDWCAKVTDLAQERYASIAAKSSSEHALHPFHASQVIAKHVDAGVTVVADGALTYLWLSEVMSRVKPGGFLCHGYLGSMGVGFGTALGAQVADLEAGRRTILVTGDGSVGYSIGEFDTLVRKQLPLIVIIMNNQSWGATLHFQQLAVGPNRVTGTRLENGSYHGVAAAFGADGYHVDSVESFSAALAQALAHNRPACINVAVALDPIPPEELILIGMDPFGSHHHHHH | soluble |
| MERCGWVSQDPLYIAYHDNEWGVPETDSKKLFEMICLEGQQAGLSWITVLKKRENYRACFHQFDPVKVAAMQEEDVERLVQDAGIIRHRGKIQAIIGNARAYLQMEQNGEPFVDFVWSFVNHQPQVTQATTLSEIPTSTSASDALSKALKKRGFKFVGTTICYSFMQACGLVNDHVVGCCCYPGNKP | not soluble |
| MSLASQSEAEVLIGVAGPMSGKLAWTGTQLRRGAEMAVANINAAGGVLGQQVRLIVADDFCDPRQALAAAEKLVADGAVFVIGHYCSGASIPASKIYAAAGVLQISPSSTNPMLTEQGHANVFRVCSRDDAQGHKAGNYLADHWGDSKIAILHDNTTYGKGLADETKKQLNMRGVTEAVYQSYTPGKDDYSVEVAALQTAHIAVLYLGGYHTEAALMVRAARDRAYPVQLISGDDTATEAFGLIAGPAAEGTLFTFVADPRRNAEAAEVVERFRAENFEPDSWTLHSYGAAEIWAQAVTKANSLDLQAVIAALREDQFDTVLGRIDFDKKGDLTVQSWVWYVWKSGEYVPVEEGHHHHHH | soluble |
| PEREAVALVGTRRASPWALAFARRLARELAEAGLWVVSGLARGIDREAHLGALEAGGRTLGVLGSALDRVYPPENRPLAQRMDLLSEFPFGTGPKPEFFPRRNRLIAGLCRAVVVVEAPLDSGALITARHALELGKEVLAVPGRPTDERSLGANRLIQDGAYPVLSAEDVLSYLGMSARP | not soluble |
| GSMTQIHQINDIDVHRITSGQVITDLTTAVKELVDNSIDANANQIEIIFKDYGLESIECSDNGDGIDPSNYEFLALKHYTSKIAKFQDVAKVQTLGFRGEALSSLCGIAKLSVITTTSPPKADKLEYDMVGHITSKTTTSRNKGTTVLVSQLFHNLPVRQKEFSKTFKRQFTKCLTVIQGYAIINAAIKFSVWNITPKGKKNLILSTMRNSSMRKNISSVFGAGGMRGLEEVDLVLDLNPFKNRMLGKYTDDPDFLDLDYKIRVKGYISQNSFGCGRNSKDRQFIYVNKRPVEYSTLLKCCNEVYKTFNNVQFPAVFLNLELPMSLIDVNVTPDKRVILLHNERAVIDIFKTTLSDYYNRQELALPK | soluble |
| MGSDKIHHHHHHMWFKNLQLHRFSAPWSPSADEVEASLAKHAFFPGTSLEMQTQGWASPRDNGQLVHAVGRQMLLTLRTEKKLLPATVVNQVTKARAAEVEEQQGYKPGRKQLRELKEQVTEELLPRAFSIRRDTRVWIDPDNGWLAIDAASTAKADEVRGMLFKALDALPLANLHVNQSPVAAMTDWLSTDVAPAGFTVDQEIELQSGSESKATVRYVRHPLDAEDLRRHISGGKRCTRLAMTWNDRVSFVLTDSLAIKRVAPLDVIKEQADGTVSDEDERFDADFTLMAGELAGMLGDLTEALGGERKA | not soluble |
| MHHHHHHMMSETAEKAIEIWKIRRLVKQLINCHGNGTSMITLIIPPGEQISRYSNMLAEEYGTASNIKSRVNRLSVLSAITSTRERLKLYNKVPDNGLVIYCGEVIMEGNKTRKLNIDFEPFKPINTSQYLCDNKFHTEALAELLESDQRFGFIVMDGHQTLYGVVSGSAREVLQRFTVDLPKKHGRGGQSALRFARLRDEKRHNYVRKVAEGAVQHFITDDKPNVAGIVLAGSADFKTELGQSDLFDQRLQSRIIKTVDVSYGGDAGFNQAIELAADTLSNVKYVQEKKLIQRFFDEISLDSGKYCFGVVDTMNALQEGAVETLLCFADLDMIRYEFKNSEGNPVITYMTKEQEEKDSTNSFLLDKDTGAEMELVSSMLLSEWLAEHYKDYGANLEFVSDRSQEGMQFVKGFGGIGAVMRYQLDLSMLDPESDEFYSDSD | soluble |
| MAHHHHHHMGKLCWLQISIGGKPAKEKILLELFDDITPKTCANFRALCTGNEGKVTDETQIPMTYKGSTFHRIIAGFMIQGGDFTKHNGTGGVSIYGERFDDENFDVPCDKAGLLAMANAGPNTNGSQFFITVNPAQHLTGRHVVFGKVVRGMNTVRALEHTETGANDKPVKPCVIVDCGVTDTLPEPEPQVGGDTFPDYPEDCTPSLTDAELLDVGEEIRQIGNKLFKASDFENAIQKYEKAARFVKTINKTTANDVAVNEKLIACYNNTAACAIKLGQWSEARNAASRVLELDNSNAKALFRRGFASLSAGDSESAVADFTKAQKLDPDNTEIVTVLQQAKEAEKVRTAKLAAGLKKMFS | not soluble |
| GTDQYTLLANRVQNAVEARQSATEAERRRHRLEQILKTVPSCVVQLDRDGQFVFANQRAIDVLGLSQSELKDRLYNDPEWEIRDLDGHPIPDAELPFRQVLETGQPLSDARHTIHWPDGTEKVLSVNGAPLFDDD | not soluble |
